Test results published in article PMC5316805, “Potent single-domain antibodies that arrest respiratory syncytial virus fusion protein in its prefusion state” (Nature Communications, 2017).

Tests used:
[1] = target: RSV A2 F, full length, on RSV A2-infected cells and virions (human respiratory syncytial virus A2, UniProt P03420); assay: cell-based or functional assay
[2] = target: T1, prefusion-stabilized RSV F (DS-Cav1) with a C-terminal Strep-tag II and 6X HisTag (human respiratory syncytial virus A2 …, stabilised); assay: SPR; DS-Cav1 captured by its His tag on an NTA chip to ~530 RU each cycle (Biacore X100); VHH 2-fold dilutions 5 nM to 39.1 pM in HBS-P+; double-reference subtracted, 1:1 binding model (Scrubber); conditions: both partners purified
T1 construct: RSV fusion (F) protein, F2 subunit (N-terminal cut product of F0) of DS-Cav1; RSV fusion (F) protein, soluble part of the F1 subunit (C-terminal cut product of F0) of DS-Cav1; also called prefusion F; prefusion RSV F; source: purified; not shown: Strep-tag II, C-terminal, kept; His6, C-terminal, kept; copies: 3 + 3

| Binder | plaque-reduction neutralisation of RSV A2 and RSV B49 on Vero cells, IC50 [1] | Kd [2] | koff [2] | kon [2] |
| --- | --- | --- | --- | --- |
| F-VHH-4 (VHH, llama VHH; also in PDB 5TP3 and 5TOJ; Disulfide between Cys50 (CDR2) and Cys100c (CDR3), Kabat numbering; the Pichia-made protein was used in the complex crystals; also called clone 4; source: P. pastoris GS115, secreted, purified (ammonium sulfate precipitation, HisTrap HP, Superdex 75); not shown: His6, C-terminal, kept) VHH: QVQLQESGGGLVQPGGSLRLSCAASGFTLDYYYIGWFRQAPGKEREAVSCISGSSGSTYYPDSVKGRFTISRDNAKNTVYLQMNSLKPEDTAVYYCATIRSSSWGGCVHYGMDYWGKGTQVTVSS | < 100 pM | < 18 pM | < 1e-05 s⁻¹ | 570000 M⁻¹ s⁻¹ |
| F-VHH-L66 (VHH, llama VHH; also in PDB 5TOK; Disulfide between Cys50 (CDR2) and Cys100c (CDR3), Kabat numbering; source: P. pastoris GS115, secreted, purified (ammonium sulfate precipitation, HisTrap HP, Superdex 75); not shown: His6, C-terminal, kept) VHH: QVQLQESGGGLVQPGGSLRLSCAASGFTLDYYYIGWFRQAPGKEREGVSCISSSHGSTYYADSVKGRFTISRDNAKNTVYLQMNSLKPEDTAVYYCATVAVAHFRGCGVDGMDYWGKGTQVTVSS | < 100 pM | 154 pM | 5e-05 s⁻¹ | 330000 M⁻¹ s⁻¹ |
